Source: the supplement of paper PMC10567573

B1: HSP90AB1 (parent)
chain: EADKNDKAVKDLVVLLFETALLSS

Variants of: B1
Assay: protein stability index of a GFP-peptide fusion (GPS, HEK-293T) (PSI 1-6); higher = more stable
Conditions: c terminus: a fixed tail appended
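Note: lentivirally expressed fusions sorted by FACS into six bins by GFP to DsRed ratio, PSI derived from sequencing read proportions per bin multiplied by bin number.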

Row | Variant | protein stability index
1 | EADKNDKAVKDLVVLLNETALLSS | 3.94
2 | EADKNDKAVKDLVVLLMETALLSS | 2.1
3 | EADKNDKAVKDLVVLLDETALLSS | 4.65
4 | EADKNDKAVKDLVVLLYETALLSS | 2.13
5 | EADKNDKAVKDLVVLLLETALLSS | 1.76
6 | EADKNDKAVKDLVVLLGETALLSS | 4.26
7 | EADKNDKAVKDLVVLLVETALLSS | 1.92
8 | EADKNDKAVKDLVVLLIETALLSS | 1.84
9 | EADKNDKAVKDLVVLLAETALLSS | 3.56
10 | EADKQDKAVKDLVVLLFETALLSS | 1.8
11 | EADKGDKAVKDLVVLLFETALLSS | 1.67
12 | EADKHDKAVKDLVVLLFETALLSS | 1.68
13 | EADKVDKAVKDLVVLLFETALLSS | 1.93
14 | EADKLDKAVKDLVVLLFETALLSS | 1.99
15 | EADKTDKAVKDLVVLLFETALLSS | 2.43
16 | EADKSDKAVKDLVVLLFETALLSS | 2
17 | EADKEDKAVKDLVVLLFETALLSS | 2.06
18 | EADKKDKAVKDLVVLLFETALLSS | 2.35
19 | EADKNDKAHKDLVVLLFETALLSS | 3
20 | EADKNDKAYKDLVVLLFETALLSS | 2.16
21 | EADKNDKATKDLVVLLFETALLSS | 2.49
22 | EADKNDKARKDLVVLLFETALLSS | 1.95
23 | EADKNDKAIKDLVVLLFETALLSS | 1.84
24 | EADKNDKAQKDLVVLLFETALLSS | 1.7

Row | Variant | protein stability index
25 | EADKNDKALKDLVVLLFETALLSS | 2.42
26 | EADKNDKAVFDLVVLLFETALLSS | 2.22
27 | EADKNDKAVCDLVVLLFETALLSS | 1.96
28 | EADKNDKAVLDLVVLLFETALLSS | 1.82
29 | EADKNDKAVGDLVVLLFETALLSS | 1.86
30 | EADKNDKAVVDLVVLLFETALLSS | 2.48
31 | EADKNDKAVQDLVVLLFETALLSS | 2.19
32 | EYDKNDKAVKDLVVLLFETALLSS | 1.73
33 | EHDKNDKAVKDLVVLLFETALLSS | 2.1
34 | EIDKNDKAVKDLVVLLFETALLSS | 1.73
35 | EQDKNDKAVKDLVVLLFETALLSS | 1.54
36 | ERDKNDKAVKDLVVLLFETALLSS | 2.26
37 | ESDKNDKAVKDLVVLLFETALLSS | 1.77
38 | ELDKNDKAVKDLVVLLFETALLSS | 1.68
39 | ECDKNDKAVKDLVVLLFETALLSS | 1.74
40 | EMDKNDKAVKDLVVLLFETALLSS | 1.67
41 | EDDKNDKAVKDLVVLLFETALLSS | 2.04
42 | EADKNDKAVKNLVVLLFETALLSS | 2.67
43 | EADKNDKAVKALVVLLFETALLSS | 2.54
44 | EADKNDKAVKFLVVLLFETALLSS | 2.86
45 | EADKNDKAVKHLVVLLFETALLSS | 2.61
46 | EADKNDKAVKKLVVLLFETALLSS | 2.15
47 | EADKNDKAVKCLVVLLFETALLSS | 3.23
48 | EADKNDKAVKYLVVLLFETALLSS | 2.79

Row | Variant | protein stability index
49 | EADKNDKAVKDLVVTLFETALLSS | 2.71
50 | EADKNDKAVKDLVVSLFETALLSS | 2.77
51 | EADKNDKAVKDLVVELFETALLSS | 3.5
52 | EADKNDKAVKDLVVVLFETALLSS | 1.5
53 | EADKNDKAVKDLVVDLFETALLSS | 3.61
54 | EADKNDKAVKDLVVRLFETALLSS | 2.64
55 | EADKNDKAVKDLVVHLFETALLSS | 2.69
56 | EADKNDKAVKDLVVMLFETALLSS | 1.92
57 | EADKNDKAVKDLVVILFETALLSS | 1.95
58 | EADKNDKAVKDLVVWLFETALLSS | 3.99
59 | EADKNDKAVKDLVVLLFEDALLSS | 2.32
60 | EADKNDKAVKDLVVLLFEAALLSS | 1.42
61 | EADKNDKAVKDLVVLLFEKALLSS | 2.2
62 | EADKNDKAVKDLVVLLFEVALLSS | 2.11
63 | EADKNDKAVKDLVVLLFEQALLSS | 1.75
64 | EADKNDKAVKDLVVLLFEEALLSS | 2.71
65 | EADKNDKAVKDLVVLLFEPALLSS | 1.83
66 | EADKNDKAVKDLVVLLFEYALLSS | 2.02
67 | EADKNDKAVKDLVVLLFEHALLSS | 2.2
68 | EADKNDKAVKDLVVLLFEGALLSS | 2.49
69 | WADKNDKAVKDLVVLLFETALLSS | 2.3
70 | PADKNDKAVKDLVVLLFETALLSS | 1.95
71 | DADKNDKAVKDLVVLLFETALLSS | 1.86
72 | VADKNDKAVKDLVVLLFETALLSS | 2.54

Row | Variant | protein stability index
73 | RADKNDKAVKDLVVLLFETALLSS | 1.69
74 | IADKNDKAVKDLVVLLFETALLSS | 2.56
75 | CADKNDKAVKDLVVLLFETALLSS | 1.88
76 | EADKNDKAVKDLVVLLFETALMSS | 1.86
77 | EADKNDKAVKDLVVLLFETALYSS | 1.5
78 | EADKNDKAVKDLVVLLFETALFSS | 1.8
79 | EADKNDKAVKDLVVLLFETALWSS | 1.64
80 | EADKNDKAVKDLVVLLFETALASS | 2.85
81 | EADKNDKAVKDLVVLLFETALESS | 2.95
82 | EADKNDKAVKDLVVLLFETALQSS | 2.29
83 | EADKNDKAVKDLVVLLFETALDSS | 3.01
84 | EADKNDKAVKDLVVLLFETALVSS | 2.17
85 | EADKNDKAVKDLVVLLFETALGSS | 2.77
86 | EADKNDKAVKDLVVLLFETALLSC | 1.4
87 | EADKNDKAVKDLVVLLFETALLSH | 1.89
88 | EADKNDKAVKDLVVLLFETALLSF | 2.11
89 | EADKNDKAVKDLVVLLFETALLSN | 2.13
90 | EADKNDKAVKDLVVLLFETALLSP | 2.72
91 | EADKNDKAVKDLVVLLFETALLSR | 1.65
92 | EADKNDKAVKDLVVLLFETALLSD | 1.93
93 | EADKNDKAVKDLVVLLFETALLSE | 1.93
94 | EADKNDKVVKDLVVLLFETALLSS | 1.63
95 | EADKNDKDVKDLVVLLFETALLSS | 2.44
96 | EADKNDKRVKDLVVLLFETALLSS | 2.19

Row | Variant | protein stability index
97 | EADKNDKPVKDLVVLLFETALLSS | 2.01
98 | EADKNDKAVKDLVVLLFETLLLSS | 1.44
99 | EADKNDKAVKDLVVLLFETSLLSS | 2.8
100 | EADKNDKAVKDLVVLLFETGLLSS | 2.46
101 | EADKNDKAVKDLVVLLFETCLLSS | 1.47
102 | EADKNDKAVKDLVVLLFETDLLSS | 2.85
103 | EADKNDKAVKDLVVLLFETRLLSS | 2.42
104 | EADKNDKAVKDLVVLLFETYLLSS | 1.44
105 | EADKNDKAVKDLVVLLFETFLLSS | 2.42
106 | EADGNDKAVKDLVVLLFETALLSS | 1.34
107 | EADCNDKAVKDLVVLLFETALLSS | 1.87
108 | EADANDKAVKDLVVLLFETALLSS | 1.9
109 | EADYNDKAVKDLVVLLFETALLSS | 2.13
110 | EADSNDKAVKDLVVLLFETALLSS | 1.8
111 | EADENDKAVKDLVVLLFETALLSS | 2.2
112 | EADQNDKAVKDLVVLLFETALLSS | 2.09
113 | EADVNDKAVKDLVVLLFETALLSS | 1.85
114 | EADKNDKAVKDAVVLLFETALLSS | 2.52
115 | EADKNDKAVKDCVVLLFETALLSS | 2.35
116 | EADKNDKAVKDQVVLLFETALLSS | 3.71
117 | EADKNDKAVKDMVVLLFETALLSS | 2.2
118 | EADKNDKAVKDTVVLLFETALLSS | 2.73
119 | EADKNDKAVKDSVVLLFETALLSS | 3.49
120 | EADKNDKAVKDDVVLLFETALLSS | 4.21

Row | Variant | protein stability index
121 | EADKNDKAVKDRVVLLFETALLSS | 3.44
122 | EADKNDKAVKDPVVLLFETALLSS | 3.2
123 | EADKNDKAVKDGVVLLFETALLSS | 3.5
124 | EADKNDKAVKDFVVLLFETALLSS | 1.72
125 | EADKNDKAVKDLVVLLFSTALLSS | 2.16
126 | EADKNDKAVKDLVVLLFFTALLSS | 3.16
127 | EADKNDKAVKDLVVLLFNTALLSS | 1.7
128 | EADKNDKAVKDLVVLLFQTALLSS | 1.77
129 | EADKNDKAVKDLVVLLFMTALLSS | 3
130 | EADKNDKAVKDLVVLLFGTALLSS | 4.31
131 | EADKNDKAVKDLVVLLFKTALLSS | 2.42
132 | EADKNDKAVKDLVVLLFWTALLSS | 2.79
133 | EADKNDKAVKDLVVLLFATALLSS | 2.2
134 | EADKNDKAVKDLVLLLFETALLSS | 1.72
135 | EADKNDKAVKDLVNLLFETALLSS | 2.21
136 | EADKNDKAVKDLVWLLFETALLSS | 1.92
137 | EADKNDKAVKDLVKLLFETALLSS | 2.64
138 | EADKNDKAVKDLVVLIFETALLSS | 2.07
139 | EADKNDKAVKDLVVLWFETALLSS | 2.2
140 | EADKNDKAVKDLVVLCFETALLSS | 3.07
141 | EADKNDKAVKDLVVLKFETALLSS | 3.62
142 | EADKNDKAVKDLVVLRFETALLSS | 3.37
143 | EADKNDKAVKDLVVLTFETALLSS | 3.63
144 | EADKNDKAVKDLVVLLFETALLTS | 2.15

Row | Variant | protein stability index
145 | EADKNDKAVKDLVVLLFETALLAS | 2.21
146 | EADKNDKAVKDLVVLLFETALLGS | 1.95
147 | EADKNDKAVKDLVVLLFETALLLS | 3.33
148 | EADKNDKAVKDLVVLLFETALLNS | 1.96
149 | EADKNDKAVKDLVVLLFETALLHS | 2.26
150 | EADKNDKAVKDLVVLLFETALLRS | 2.54
151 | EADKNDKAVKDLVVLLFETALLYS | 1.63
152 | EADKNDKAVKDLVVLLFETALLIS | 3.41
153 | EADKNDKAVKDLVVLLFETALLMS | 2.65
154 | EADKNDKAVKDLGVLLFETALLSS | 3.38
155 | EADKNDKAVKDLLVLLFETALLSS | 2.1
156 | EADKNDKAVKDLYVLLFETALLSS | 2.33
157 | EADKNDKAVKDLCVLLFETALLSS | 2.03
158 | EADKNDKAVKDLFVLLFETALLSS | 2.41
159 | EADKNDKAVKDLDVLLFETALLSS | 3.81
160 | EADKNDKAVKDLSVLLFETALLSS | 3.54
161 | EADKNDKAVKDLRVLLFETALLSS | 2.98
162 | EAQKNDKAVKDLVVLLFETALLSS | 1.82
163 | EAWKNDKAVKDLVVLLFETALLSS | 1.86
164 | EALKNDKAVKDLVVLLFETALLSS | 1.86
165 | EACKNDKAVKDLVVLLFETALLSS | 1.4
166 | EAAKNDKAVKDLVVLLFETALLSS | 2.57
167 | EAMKNDKAVKDLVVLLFETALLSS | 1.25
168 | EADKNMKAVKDLVVLLFETALLSS | 2.64

Row | Variant | protein stability index
169 | EADKNIKAVKDLVVLLFETALLSS | 3.48
170 | EADKNLKAVKDLVVLLFETALLSS | 2.27
171 | EADKNGKAVKDLVVLLFETALLSS | 1.85
172 | EADKNEKAVKDLVVLLFETALLSS | 1.63
173 | EADKNCKAVKDLVVLLFETALLSS | 2.48
174 | EADKNTKAVKDLVVLLFETALLSS | 1.42
175 | EADKNDMAVKDLVVLLFETALLSS | 2.47
176 | EADKNDRAVKDLVVLLFETALLSS | 2.02
177 | EADKNDPAVKDLVVLLFETALLSS | 2.24
178 | EADKNDFAVKDLVVLLFETALLSS | 2.32
179 | EADKNDAAVKDLVVLLFETALLSS | 1.95
180 | EADKNDWAVKDLVVLLFETALLSS | 3.3
181 | EADKNDYAVKDLVVLLFETALLSS | 2.79
182 | EADKNDKAVKDLVVLLFETAFLSS | 2.13
183 | EADKNDKAVKDLVVLLFETAMLSS | 1.86
184 | EADKNDKAVKDLVVLLFETACLSS | 2.14
185 | EADKNDKAVKDLVVLLFETAALSS | 2.49
186 | EADKNDKAVKDLVVLLFETANLSS | 3.31
187 | EADKNDKAVKDLVVLLFETAGLSS | 2.58
188 | EADKNDKAVKDLVVLLFETAVLSS | 1.94
